# Literature values in PMC5567442.
# Molecular target: Kv1.3 (UniProt P22001)
# Sequence of UniProt P22001 (P22001 whole entry): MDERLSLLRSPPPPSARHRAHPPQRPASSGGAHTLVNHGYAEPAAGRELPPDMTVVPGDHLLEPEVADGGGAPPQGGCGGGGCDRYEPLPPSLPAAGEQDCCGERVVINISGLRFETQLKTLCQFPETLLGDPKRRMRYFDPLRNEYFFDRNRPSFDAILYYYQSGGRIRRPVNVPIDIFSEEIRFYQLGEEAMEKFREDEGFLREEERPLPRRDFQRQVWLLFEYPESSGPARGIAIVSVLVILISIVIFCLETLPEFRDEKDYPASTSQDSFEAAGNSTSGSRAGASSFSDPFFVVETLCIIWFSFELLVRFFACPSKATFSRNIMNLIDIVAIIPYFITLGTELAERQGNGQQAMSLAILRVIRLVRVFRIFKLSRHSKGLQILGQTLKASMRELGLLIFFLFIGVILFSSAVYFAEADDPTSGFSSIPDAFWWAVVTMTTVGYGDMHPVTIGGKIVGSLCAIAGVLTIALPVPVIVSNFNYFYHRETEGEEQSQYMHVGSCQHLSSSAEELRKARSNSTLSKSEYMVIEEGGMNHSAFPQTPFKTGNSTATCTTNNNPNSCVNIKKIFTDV
substance,measurement,value
Agitoxin-2 (from UniProt P46111),Kd,0.177 nM
